Experimental findings from article PMC12483278, “The viral BCL2 protein BHRF1 of Epstein–Barr virus promotes AIM2 inflammasome activation to facilitate lytic replication” (PLOS Pathogens, 2025) are described below.

The target of the experiment is T1, GST-AIM2 full-length (UniProt O14862 1-343).
T1 construct: also called GST-AIM2 WT; GST-tagged AIM2; source: HEK293T, transfected, in lysate
T1 sequence (looked up): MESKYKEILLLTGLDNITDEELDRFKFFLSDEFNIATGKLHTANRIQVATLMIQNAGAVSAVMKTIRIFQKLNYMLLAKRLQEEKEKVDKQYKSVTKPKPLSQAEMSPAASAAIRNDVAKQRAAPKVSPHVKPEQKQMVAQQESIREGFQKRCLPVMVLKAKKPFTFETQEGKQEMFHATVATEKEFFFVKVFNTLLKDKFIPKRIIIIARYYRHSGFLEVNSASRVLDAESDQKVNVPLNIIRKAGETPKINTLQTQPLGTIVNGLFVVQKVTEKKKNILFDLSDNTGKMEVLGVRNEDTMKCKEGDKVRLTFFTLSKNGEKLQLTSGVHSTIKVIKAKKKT
In words: pull-down; purified GST-AIM2, Flag-ASC-His and GFP-BHRF1-His mixed and incubated in the absence or presence of purified HSV-1 dsDNA overnight at 4 °C; GST-affinity beads, western blotting. As to conditions: both partners purified. A general note: A western blot detects proteins with antibodies after separation by electrophoresis.

B1: GFP-BHRF1-His (natural protein)
chain: MAYSTREILLALCIRDSRVHGNGTLHPVLELAARETPLRLSPEDTVVLRYHVLLEEIIERNSETFTETWNRFITHTEHVDLDFNSVFLEIFHRGDPSLGRALAWMAWCMHACRTLCCNQSTPYYVVDLSVRGMLEASEGLDGWIHQQGGWSTLIEDNIPGSRRFSWTLFLAGLTLSLLVICSYLFISRGRH
notes: also called purified BHRF1 protein
B1: the binding result is “binds”.
